Here are results for 17 molecules from patent publication US20200308299A1 (NATIONAL UNIVERSITY CORPORATION KOCHI UNIVERSITY, published 2020).

For one assay, the target named is T1, human Glypican-1 (human, UniProt P35052 24-530, limits assumed).
T1 construct: also called human GPC1
T1 sequence: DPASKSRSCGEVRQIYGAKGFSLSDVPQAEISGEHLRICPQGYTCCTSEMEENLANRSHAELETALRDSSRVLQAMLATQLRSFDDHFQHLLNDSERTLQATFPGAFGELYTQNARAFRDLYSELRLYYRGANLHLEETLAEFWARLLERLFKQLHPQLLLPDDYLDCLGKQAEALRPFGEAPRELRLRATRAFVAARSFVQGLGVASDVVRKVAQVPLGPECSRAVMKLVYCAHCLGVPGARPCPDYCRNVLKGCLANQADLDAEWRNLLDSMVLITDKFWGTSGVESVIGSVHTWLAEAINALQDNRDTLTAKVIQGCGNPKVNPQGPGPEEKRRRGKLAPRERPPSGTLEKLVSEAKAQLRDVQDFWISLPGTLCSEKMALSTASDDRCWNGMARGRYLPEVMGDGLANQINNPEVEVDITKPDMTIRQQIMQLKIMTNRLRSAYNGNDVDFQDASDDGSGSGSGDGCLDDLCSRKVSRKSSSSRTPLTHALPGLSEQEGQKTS
Nature of the assay: phage scFv panning, ELISA on immobilised human GPC1, cell-ELISA and flow cytometry on human GPC1 transformants and TE14 (Example 1).

The target in assay [1] is T2, recombinant human Glypican-1 protein (R&D Systems, CF, 4519-GP-050) (human, UniProt P35052 24-530).
T2 construct: Bought protein; also called recombinant human GPC1
T2 sequence: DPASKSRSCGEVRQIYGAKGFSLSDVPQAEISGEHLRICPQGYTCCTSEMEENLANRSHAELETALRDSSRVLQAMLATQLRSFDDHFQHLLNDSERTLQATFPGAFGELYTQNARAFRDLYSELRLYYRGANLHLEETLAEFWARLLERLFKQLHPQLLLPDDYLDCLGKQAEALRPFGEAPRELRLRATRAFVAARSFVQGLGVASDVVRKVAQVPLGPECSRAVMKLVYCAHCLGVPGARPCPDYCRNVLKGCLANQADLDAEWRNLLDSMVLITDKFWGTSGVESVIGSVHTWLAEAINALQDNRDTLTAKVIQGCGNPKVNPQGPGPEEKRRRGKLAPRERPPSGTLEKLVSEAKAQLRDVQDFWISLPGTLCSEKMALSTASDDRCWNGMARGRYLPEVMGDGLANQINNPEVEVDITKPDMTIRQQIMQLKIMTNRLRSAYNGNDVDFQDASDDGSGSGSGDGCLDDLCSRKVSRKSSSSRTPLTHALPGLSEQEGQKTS
The assay can be described thus: ELISA on plate-coated recombinant human GPC1.

B1: anti-Glypican-1 antibody clone K090-02a006 (antibody, mouse IgG2a, kappa, V domains shown)
VH: EVQLQQSGAELVKPGASVKISCRASGYSFTGYNMNWVKQSHGKSLEWIGNINPYYGTTNYNQKFKGKATLTVDKSSSTAYMQLNSLTSEDSAVYYCASDGYYGAMDYWGQGTSVTVSS
VL: DIKMTQSPKFMSTSVGDRVSVTCKASQNVGTYVAWYQQKPGQSPKALIYSASYRYSGVPDRFTGTGSGTDFTLTISNVQSEDLAEYFCQQYYNYPLTFGAGTKLELKR
notes: Selected as scFv on phage
Take B1: the binding result with human Glypican-1 is “binds”.

B2: anti-Glypican-1 antibody clone K090-02a035 (antibody, mouse IgG2a, kappa, V domains shown)
VH: QVQLQQSGAELVKPGASVKLSCKTSGYTFTSYWMHWVKQRPGQGLEWIGNIDPSDSETHYNQKFKDKATLTVDKSSSTAYMQLSGLTSEDSAVYYCARNLGYWGQGTSVTVSS
VL: DIKMTQSPLSLPVSLGDQASISCRSSQSLVHSNGNTYLHWYLQKPGQSPKLLIYKVSNRFSGVPDRFSGSGSGTDFTLKISRVEAEDLGVYFCSQSTHVPYTFGGGTKLEIKR
notes: Selected as scFv on phage
With B2, in the assay with human Glypican-1, the binding result is “binds”.

B3: anti-Glypican-1 antibody clone K090-01a042 (antibody, mouse IgG2a, kappa, V domains shown)
VH: QVQLQQPGAELAKPGASVKMSCKASGYTFTRYWMHWVKQRPGQGLEWIGYINPSSGYTEYNQKFKDKATLTADKSSSTAYMQLSSLTSEDSAVYYCVRLGDYSYYFDYWGQGTTLTVSS
VL: DVVMTQTPLSLPVSLGDQASISCRSSQSIVHSNGNTYLEWYLQKPGQSPKLLIYKVSNRFSGVPDRFSGSGSGTDFTLKISRVEAEDLGVYYCFQGSHVPWTFGGGTKLELKR
notes: Selected as scFv on phage
In the case of B3, the binding result with human Glypican-1 is “binds”.

B4: anti-Glypican-1 antibody clone K090-01a007 (antibody, mouse IgG2a, kappa, V domains shown)
VH: QVHLQQSGAELVKPGASVKLSCKASGYTFTSYWMHWVKQRPGQGLEWIGNIDPYDSETHYNQKFKDKATLTVDKSSSTAYMQLSSLTSEDSAVYYCARDSNWGYFDYWGQGTTLTVSS
VL: DVVMTQTPLSLPVSLGDQASISCRSSQSLVHSNGNTYLHWYLQKPGQSPKLLIYKVSNRFSGVPDRFSGSGSGTDFTLKISRVEAEDLGVYFCSQSTHVPWTFGGGTKLELKR
notes: Selected as scFv on phage
For B4, in the assay with human Glypican-1, the binding result is “binds”.

B5: anti-Glypican-1 antibody clone K090-02a002 (antibody, mouse IgG2a, kappa, V domains shown)
VH: EVKLVESGGGLVKPGGSRKLSCAASGFTFSDYGMHWVRQAPEKGLEWVAYISSGSSTIYYADTVKGRFTISRDNAKNTLFLQMTSLRSEDTAMYYCARHSYYSYDVGGDYVMDYWGQGTSVTVSS
VL: DIVMSQSPKFMSTSVGDRVSITCKASQDVGTAVAWYQQKPGQSPKLLIYWASTRHTGVPDRFTGSGSGTDFTLTISNVQSEDLADYFCQQYSSYPLTFGAGTKLEIKR
notes: Selected as scFv on phage
B5: the binding result with human Glypican-1 is reported as “binds”.

B6: anti-Glypican-1 antibody clone K090-02a010 (antibody, mouse IgG2a, kappa, V domains shown)
VH: EVKLVESGGGLVKPGGSRKLSCAASGFTFSDYGMHWVRQAPEKGLEWVAYINSGSSTIYYADTVKGRFTISRDNAKNTLFLQMTSLRSGDTAMYYCARHSYYSYDVGGDYVMDYWGQGTSVTVSS
VL: DIVLTQSPKFMSTSVGDRVSITCKASQDVGTAVAWYQQKPGQSPKLLIYWASTRHTGVPDRFTGSGSGTDFTLTISNVQSEDLADYFCQQYSSYPLTFGAGTKLEIKR
notes: Selected as scFv on phage
For B6, the binding result in the assay with human Glypican-1 is listed as “binds”.

B7: anti-Glypican-1 antibody clone K090-01a033 (antibody, mouse IgG2a, kappa, V domains shown)
VH: QVQLKQSGPELVKPGASVKISCKASGYSFTGYYMHWVKQSPEKSLEWIGEINPSTGDTTYNQKFKAKATLTVDKSSSTAYMQLKSLTSEDSAVYYCAREKRDDGVFAYWGQGTLVTVSS
VL: DIVMSQSPKSMSMSVGERVALSCKASENVGTYVSWYQQKPEQSPKLLIYGASNRYTGVPDRFTGSGSATDFTLTISSVQAEDLADYYCGQSYSYPLTFGAGTKLELKR
notes: Selected as scFv on phage; also called clone 01a033; anti-GPC1 monoclonal antibody (01a033)
For B7, the binding result (with human Glypican-1; in assay [1]) was “binds” each time.

B8: anti-Glypican-1 antibody clone K090-01a002 (antibody, mouse IgG2a, kappa, V domains shown)
VH: EVQLQQSGPELVKPGASVKISCKSSGYSFTRYYMHWVKHSPEKSLEWIGEINPSTGDTTYNQKFKAKATLTVDKSSSTAYMQLKSLTSEDSAVYYCAREKRDDGVLAYWGQGTLVTVSS
VL: DIQMTQSPKFLPVSAGDRVTMTCKASQSVGNNVAWYQQKPGQSPKLLIYYASNRYTGVPDRFTGSGSGTDFTFTISSVQVEDLAVYFCQQHYSSPLTFGAGTKLELKR
notes: Selected as scFv on phage
Regarding B8, the binding result with human Glypican-1 is recorded as “binds”.

B9: anti-Glypican-1 antibody clone K090-01a021 (antibody, mouse IgG2a, kappa, V domains shown)
VH: QVQLKQSGPELVKPGASVKISCKASGYSFTGYYMHWVKQSPEKSLEWIGEINPSTGGTTYNQKFKAKATLTVDKSSSTAYMQLKSLTSEDSAVYYCAREKRDDGVFAYWGQGTLVTVSS
VL: SIVMTQTPKFLPVSAGDRVTMTCKASQSVGNNVAWYQQKPGQSPKLLIYYASNRYTGVPDRFTGSGSGTDFPFTISSVQVEDLAVYFCQQHYSSPLTFGAGTKLELKR
notes: Selected as scFv on phage
On to B9, for which the binding result in the assay with human Glypican-1 was “binds”.

B10: anti-Glypican-1 antibody clone K090-01a016 (antibody, mouse IgG2a, kappa, V domains shown)
VH: QVHLQQSGPELVKPGASVKISCKASGYTFTDYYINWVKQKPGQGLEWIGYIDPYNDGSKYNEKFKGKATLTSDKSSSTAYMELSSLTSEDSAVYYCARTPYYSFYSYGFYFDYWGQGTTLTVSS
VL: DIVLTQSPASLAVSLGQRATISCRASKSVSTSSYSYMHWYQQKPGQPPKLLIKYASYLESGVPARFSGSGSGTDFTLNIHPVEEEDAATYYCQHSREFPLTFGAGTKLELKR
notes: Selected as scFv on phage
Take B10: the binding result in the assay with human Glypican-1 is on record as “binds”.

B11: anti-Glypican-1 antibody clone K090-01a009 (antibody, mouse IgG2a, kappa, V domains shown)
VH: EVQLQQSGPELVKPGASVEISCKASGYSFTGYFMNWVKQSQGKSLEWIGRINPDNGDIFYNQKFKGKATLTVDKSSSTAHMELRSLTSEDSAVYYCARSWNWYFDVWGAGTTVTVSS
VL: DIQMTQSPASLSASVGETVTITCRASENIYSYLAWYQQKQGKSPQLLVYNAKTLAEGVPSRFSGSGSGTQFSLKINSLQPEDFGSYYCQHHYGTPYTFGSGTKLEIKR
notes: Selected as scFv on phage
Regarding B11, the binding result with human Glypican-1 is “binds”.

B12: anti-Glypican-1 antibody clone K090-02a022 (antibody, mouse IgG2a, kappa, V domains shown)
VH: QVQLQQPGPELVKPGASVKMSCKASGYTFTDYYMNWVKQSHGKSLEWIGRVNPSNGGTSYNQKFKGKATLTVDKSLSTAYMQLNSLTSEDSAVYYCARSGENYYAMDYWGQGTSVTVSS
VL: DIQMTQSPASLSASVGETVTITCRASENIYSYLAWYQQKQGKSPQLLVYNGKTLAEGVSSRFSGSGSGTQFSLKINSLQPEDFGSYYCQNHYGVPWTFGGGTKLEIKR
notes: Selected as scFv on phage
On to B12, for which the binding result in the assay with human Glypican-1 is “binds”.

B13: anti-Glypican-1 antibody clone K090-01a030 (antibody, mouse IgG2a, kappa, V domains shown)
VH: QVQLQQSGAELVRPGTSVKMSCKAAGYTFTNYWIGWVKQRPGHGLEWIGDIYPGGGYTHYNEKFKGKATLTADTSSSTAYMQLSSLTSEDSAIYYCARERVYYDGSRYFDVWGAGTTVTVSS
VL: DIKMTQSPKFLPVSAGDRVTMTCKASQSVGNNVAWYQQKPGQSPKLLIYYASNRYTGVPDRFTGSGSGTDFTFTISSVQVEDLAVYFCQQHYSSPWTFGGGTKLEIKR
notes: Selected as scFv on phage
In the case of B13, in the assay with human Glypican-1, the binding result is “binds”.

B14: anti-Glypican-1 antibody clone K090-01a026 (antibody, mouse IgG2a, kappa, V domains shown)
VH: QVHLQQSGAELVRPGTSVKMSCKAAGYTFTNYWIGWVKQRPGHGLEWIGDIYPGGGYTHYNEKFKGKATLTADTSSSTAYMQLSSLTSEDSAIYYCARERVYYDGSRFFDVWGAGTTVTVSS
VL: DIVMSQSPKFLPVSAGDRVTMTCKASQSVGNNVAWYQQKPGQSPKLLIYYASNRYTGVPDRFTGSGSGTDFTFTISSVQVEDLAVYFCQQHYSSPWTFGGGTKLEIKR
notes: Selected as scFv on phage
Turning to B14, the binding result with human Glypican-1 is on record as “binds”.

B15: anti-Glypican-1 antibody clone K090-01a017 (antibody, mouse IgG2a, kappa, V domains shown)
VH: EVQLQQSGGELVRPGTSVKMSCKAAGYTFTNYWIGWVKQRPGHGLEWIGDLYPGGGYTHYNEKFKGKATLTADTSSSTAYMQLSSLTSEDSAIYYCARERVYFDGSRYFDVWGAGTTVTVSS
VL: SIVMTQTPKFLPVSAGDRVTMTCKASQSVGNNVAWYQQKPGQSPKLLIYYASNRYTGVPDRFTGSGSGTDFTFTISSVQVEDLAVYFCQQHYSSPWTFGGGTKLEIKR
notes: Selected as scFv on phage
As for B15, the binding result in the assay with human Glypican-1 is reported as “binds”.

B16: anti-Glypican-1 antibody clone K090-02a014 (antibody, mouse IgG2a, kappa, V domains shown)
VH: EVQLQQSGPELVKPGASVKISCKASGYSFTGYYIHWVKQSPEKSLEWIGEINPSTGDITYNQKFKAKATLTVDKSSSTAYMQLKSLTSDDSAVYYCARERNYDRFAYWGQGTLVTVSS
VL: SIVMTQTPALMAASPGEKVTITCSVSSSISSSNLHWYQQKSETSPKPWIYGTSNLASGVPVRFSGSGSGTSYSLTISSMEAEDAATYYCQQWSSYPLTFGAGTKLEIKR
notes: Selected as scFv on phage
Regarding B16, the binding result with human Glypican-1 was “binds”.

B17: anti-Glypican-1 antibody clone K090-02a034 (antibody, mouse IgG2a, kappa, V domains shown)
VH: EVQLQQSGPELVKPGASVKISCKASGYSFTGYYMHWVKQSPEKSLEWIGEINPSTGDTTYNQKFKAKATLTVDKSSSTAYIQLKSLTSEDSAVYYCARERNYDRFAYWGQGTLVTVSS
VL: QIVLSQSPAIMSASPGEKVTMTCSASSSVSYMYWYQQKPGSSPRLLIYDTSNLASGVPVRFSGSGSGTSYSLTISRMEAEDAATYYCQQWSSYPLTFGAGTKLELKR
notes: Selected as scFv on phage
Take B17: the binding result with human Glypican-1 is “binds”.
